Test results taken from patent US20210332123A1 (SUZHOU KANOVA BIOPHARMACEUTICAL, published 2021).

Assays:
mouse IL-25 = target: T1, mouse IL-25 (mouse, UniProt Q8VHH8 17-169, limits assumed); experiment: ELISA, plate coated with mouse IL-25, OD450, Example 7; unit from the axis lg(nM) [panel Mouse IL-25]
T1 construct: In-house production
T1 sequence (looked up): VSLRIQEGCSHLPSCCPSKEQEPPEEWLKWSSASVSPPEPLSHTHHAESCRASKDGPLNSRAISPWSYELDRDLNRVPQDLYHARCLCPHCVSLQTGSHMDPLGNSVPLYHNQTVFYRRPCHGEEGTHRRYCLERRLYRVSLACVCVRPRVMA

human IL-25 [1] = target: T2, human IL-25 (human, UniProt Q9H293 33-177); experiment: ELISA, plate coated with human IL-25 (hIl25-HIS), OD450, Example 4; unit from the axis lg(nM) and paragraph 95
T2 construct: ELISA used bought R&D systems #1258-IL-025/CF; Treated as one molecule; also called IL-17E; human IL-17E
T2 sequence (looked up): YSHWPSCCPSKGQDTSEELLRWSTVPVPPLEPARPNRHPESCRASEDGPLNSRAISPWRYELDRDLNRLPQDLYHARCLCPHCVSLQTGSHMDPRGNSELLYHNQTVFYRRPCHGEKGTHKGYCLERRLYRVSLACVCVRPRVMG
Description: MaxiSorp 96-well plates (NUNC #449824, www.thermofisher.com) were coated with 2 μg/ml human IL-25 (R&D systems #1258-IL-025/CF) in 1×PBS (50 μl/well). Plates were incubated at 4° C. overnight. Coating solution was removed and plates were washed once with 200 μl/well PBST (1×PBS with 0.05% tween-20). Then 200 μl/well blocking buffer (1×PBS with 0.05% tween-20, 3% BSA) were added and incubated at room temperature for 1 hour. Blocking buffer was removed and plates were washed three times with 200 μl/well PBST (1×PBS with 0.05% tween-20). Anti-IL-25 antibodies (produced in Example 2) were diluted to 10, 3.33, 1.11, 0.37, 0.123, 0.041, 0.0137, 0.0046, 0.0015, 0.00031, 0.000102, 0.000034 μg/ml by 1×PBS and added to plates (50 μl/well). Plates were incubated at room temperature for 2 hours. Antibodies in the wells were removed and plates were washed three times with 200 μl/well PBST (1×PBS with 0.05% tween-20). Goat anti-human IgG (H&L)-HRP secondary antibody (Jackson Immuno Research #109-035-088, www.jacksonimmuno.com) was diluted 1:5000 in 1×PBS and added to each well (50 μl/well). Plates were incubated at room temperature for 1 hour. Secondary antibody was removed and plates were washed seven times with 200 μl/well PBST (1×PBS with 0.05% tween-20) each time. 50 μl/well TMB (eBioscience #85-00-4201-56, www.ebioscience.com) was added and plates were incubated at room temperature for several minutes. Then 50 μl/well 2N H₂SO₄ was added to stop the reaction. Optical density was measured at 450 nm in relation to human IL-25 binding.

human IL-25 [2] = target: T2, human IL-25; experiment: cell-based or functional assay

B1: VH1-2-VL2-1 (antibody, V domains shown)
VH: QVTLKESGPTLLKPTQTLTLTCTFSGFSLSTSGMGLGWIRQPPGKALEWLAHIWWDDVKHYKPALKSRLTITKDTSKNQVVLTITNVDPVDTATYYCARMGQLHYYGYDYAMDYWGQGTLVTVSS
VL: DIQLTQSPSFLSASVGDRVTITCSASSSVSYMYWYQQKPGKAPKPLIYRTSNLASGVPSRFSGSGSGTEYTLTISSMQPEDFATYYCQLYHSYPPTWTFGQGTKLEIK
notes: also called antibody formed by VH1-2 and VL2-1; copies: 2 + 2
For B1, the EC50 (mouse IL-25) was 0.215 nM, the EC50 (human IL-25 [1]) was 0.208 nM and the “IC50, CXCL1/GROalpha production of HT-29 cells stimulated by human IL-25 [B]” value (human IL-25 [2]) was 11.4 nM.
